This is an account of results in patent publication US12473352 (SUN YAT SEN UNIVERSITY, dated 2025).

As a reminder, the EC50 (read off the curve) is the concentration needed to bring the measured effect to its halfway point. A higher EC50 (read off the curve) goes with a less potent agent. For orientation: Kd means the concentration at which binding is half-saturated. By koff is commonly meant a measure of how fast the partners let go of each other. The term kon denotes a measure of how fast the partners come together. Read a high kon as faster complex formation.

T1: human IFP35 protein (human, UniProt P80217 1-286, limits assumed)
T1 construct: also called interferon-induced protein 35; IFI35
T1 chain: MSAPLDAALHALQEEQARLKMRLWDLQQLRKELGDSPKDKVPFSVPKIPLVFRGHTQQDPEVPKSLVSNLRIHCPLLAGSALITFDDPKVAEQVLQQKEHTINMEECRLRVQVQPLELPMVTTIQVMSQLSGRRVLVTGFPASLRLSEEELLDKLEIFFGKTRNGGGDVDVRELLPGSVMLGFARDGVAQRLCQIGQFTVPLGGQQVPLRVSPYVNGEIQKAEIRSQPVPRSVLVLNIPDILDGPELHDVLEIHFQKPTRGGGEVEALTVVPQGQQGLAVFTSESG

B1: AE001-7 (antibody, human IgG1, V domains shown)
VH: QVQLVQSGAEVKKPGASVKVSCKASGYTFTNYGMNWVRQAPGQGLEWMGWINTYTGEPTVAQKFQGRFTFTLDTSTSTAYLELSSLRNEDTAVYFCARYGYSWAMDYWGQGTSVTVSS
VL: DIQMTQSPSSLSASVGDRVTITCQASSSVSYMHWYQQKPGKAPKRLIYDTSKLASGVPSRFSGSGSGTDYTLTISSLQPEDIATYYCQQWSSNSWSTFGAGTKLEIK
notes: Human IgG1; CDR mutant of AE001-H3+L3; also called AE001-6Hc + 7Lc; AE001-6HC + 7LC
B2: AE001-9 (antibody, human IgG1, V domains shown)
VH: B1 VH
VL: B1 VL with S92P, N93R, S94P, W95P, S96I
notes: Human IgG1; CDR mutant of AE001-H3+L3; also called AE001-6Hc + 9Lc; AE001-6HC + 9LC
B3: AE001-6 (antibody, human IgG1, V domains shown)
VH: B1 VH
VL: B1 VL with S92P, N93Y, S94P, W95P, S96I
notes: Human IgG1; CDR mutant of AE001-H3+L3; also called AE001-6Hc + Lc; AE001-6HC + LC
B4: AE001-8 (antibody, human IgG1, V domains shown)
VH: B1 VH
VL: B1 VL with S92P, N93L, S94P, W95P, S96I
notes: Human IgG1; CDR mutant of AE001-H3+L3; also called AE001-6Hc + 8Lc; AE001-6HC + 8LC
B5: AE001-H3+L3 (antibody, V domains shown)
VH: B1 VH
VL: B1 VL with S94P, W95P, S96I
notes: The same doubt about the 'constant region' label applies as for AE001-H1+L1; also called AE001H3 + AE001L3; humanized antibody
B6: 35NIDmAb (antibody, V domains shown)
VH: VQLVESGPELKKPGETVKISCKASGYTFTNYGMNWVKQAPGKGLKWMGWINTYTGEPTFADDFKGRFAFSLETSASTAYLQINNLKNEDTATYFCARYGYSWAMDYWGQGTSVTVSS
VL: DIVMTQSPAIMSASPGEKVTMTCSASSSVSYMHWYQQKSGTSPKRWIYDTSKLASGVPARFSGSGSGTSYSLTISSMEAEDAATYYCQQWSSNPPITFGAGTKLEIK
notes: Mouse monoclonal antibody from hybridoma ascites; also called AE001-VH+VL; AE001-VH+VL (35NIDmAb)
B7: AE001-H1+L1 (antibody, V domains shown)
VH: B1 VH with Q6E, V20I, R38K, E46K, V60F, K63D, T76A, E82Q, L83I
VL: B1 VL with L11M, I21M, A42S, L46W, L77M, S94P, W95P, S96I
notes: also called AE001H1 + AE001L1; humanized antibody
B8: AE001-H2+L2 (antibody, V domains shown)
VH: B1 VH with V20I, V60F, L83I
VL: B1 VL with I21M, L46W, L77M, S94P, W95P, S96I
notes: Humanized form of 35NIDmAb with the same CDRs; The same doubt about the 'constant region' label applies as for AE001-H1+L1; also called AE001H2 + AE001L2; humanized antibody
B9: IFP35 NID (other)
chain: IQVMSQLSGRRVLVTGFPASLRLSEEELLDKLEIFFGKTRNGGGDVDVRELLPGSVMLGFARDGVAQRLCQIGQFTVPLGGQQVPLRVSPYVNGEIQ
notes: also called NID domain of IFP35 (a fragment consisting of amino acids at positions 124-220); antigen IFP35 NID

Substitutions are numbered along the chain they refer to.

The first data set has as its target T1, human IFP35 protein. The data set is described as follows: ELISA (OD450) on antigen IFP35. (In an ELISA, binding on a coated surface is turned into a signal by an enzyme label.)
Consider B1, for which the “EC50 (read off the curve)” value was about 0.2 µg/mL.

As for B2, the concentration giving a half-maximal response (EC50 (read off the curve)) is about 0.2 µg/mL.

Take B3: the “EC50 (read off the curve)” value is about 0.1 µg/mL.

As to B4, the “EC50 (read off the curve)” value is about 0.2 µg/mL.

In a further data set the target is T1, human IFP35 protein. Nature of the data set: affinity kinetics (fortebio); upper end given to the clone said to show the best improvement. A general note: BLI is a label-free optical method that tracks binding on a fibre tip over time.
In the case of B4, the “fold increase in affinity against AE001-H3+L3” value was in the range of 2.5 to 4.6 fold.

The next data set deals with T1, human IFP35 protein. The data set is described as follows: affinity kinetics (fortebio), antibody loaded.
For the molecule B5, the Kd stood at 13.9 nM, the koff was 0.00201 s⁻¹ and the kon was found to be 145000 M⁻¹ s⁻¹.

With B1, the affinity, expressed as Kd, was 3.46 nM; the koff was determined as 0.000524 s⁻¹; the on-rate (kon) is 151000 M⁻¹ s⁻¹.

As for B2, binding was put at a Kd of 3.04 nM, the koff is 0.000454 s⁻¹ and the kon is 149000 M⁻¹ s⁻¹.

For B3, binding was characterised by a dissociation constant (Kd) of 3.35 nM, the off-rate (koff) stood at 0.000508 s⁻¹ and the on-rate (kon) is 152000 M⁻¹ s⁻¹.

B4 returned a Kd of 2.99 nM, a koff of 0.00044 s⁻¹ and a kon of 147000 M⁻¹ s⁻¹.

For the next data set, the target named is T1, human IFP35 protein. The data set is described as follows: ELISA (OD450) on human IFP35 protein.
For the molecule B6, the concentration giving a half-maximal response (EC50 (read off the curve)) was about 0.06 µg/mL.

For the molecule B5, the “EC50 (read off the curve)” value is about 0.2 µg/mL.

For the molecule B7, the half-maximal effective concentration (EC50 (read off the curve)) was about 0.05 µg/mL.

For the molecule B8, the 50% effective concentration (EC50 (read off the curve)) is about 0.08 µg/mL.

A further data set concerns the molecule itself. Nature of the data set: crystal structure of IFP35 NID alone.
With B9, the binding result is recorded as “binds”.

Another data set concerns the target B9. Nature of the data set: method not stated.
B6 had a dissociation constant (Kd) of 28 nM.
